Reference: the RNAGym collection of RNA variant scans (doi:10.7554/elife.80360)

B1: HDV Ribozyme (parent)
chain: GGCCGGCAUGGUCCCAGCCUCCUCGCUGGCGCCGGCUGGGCAACAUUCCGAGGGGACCGUCCCCUCGGUAAUGGCGAAUGGGACCCA

Variants of: B1
Test: self-cleavage, relative activity (ratio to wild type); higher = more cleavage; co-transcriptional

| Variant | self-cleavage |
| --- | --- |
| CGCCGGCAUGGUCCCAGUCUCCUCGCUGGCGCCGGCUGGGCAACAUUCCGAGGGGACCGUCCCCUCGGUAAUGGCGAAUGGGACCCA | 0.0437 |
| CGCCGGCAUGGUCCCAGACUCCUCGCUGGCGCCGGCUGGGCAACAUUCCGAGGGGACCGUCCCCUCGGUAAUGGCGAAUGGGACCCA | 0.123 |
| CGCCGGCAUGGUCCCAGCCUCCUCGCUGGCGUCGGCUGGGCAACAUUCCGAGGGGACCGUCCCCUCGGUAAUGGCGAAUGGGACCCA | 0.192 |
| CGCCGGCAUGGUCCCAGCCUCCUCGCUGGCGACGGCUGGGCAACAUUCCGAGGGGACCGUCCCCUCGGUAAUGGCGAAUGGGACCCA | 0 |
| CGCCGGCAUGGUCCCAGCCUCCUCGCUGGCGCCGGCUGGGCAACAUUGCGAGGGGACCGUCCCCUCGGUAAUGGCGAAUGGGACCCA | 0.346 |
| CGCCGGCAUGGUCCCAGCCUCCUCGCUGGCGCCGGCUGGGCAACAUUCCGAGGGGACCGUCCCCUCGGUAAUGGCGAAUGGGCCCCA | 0.185 |
| CGCCGGCAUGGUCCCAGCCUCCUCGCUGGCGCCGGCUGGGCAACCUUCCGAGGGGACCGUCCCCUCGGUAAUGGCGAAUGGGACCCA | 0.145 |
| UGCCGGCCUGGUCCCAGCCUCCUCGCUGGCGCCGGCUGGGCAACAUUCCGAGGGGACCGUCCCCUCGGUAAUGGCGAAUGGGACCCA | 0.415 |
| UGCCGGCGUGGUCCCAGCCUCCUCGCUGGCGCCGGCUGGGCAACAUUCCGAGGGGACCGUCCCCUCGGUAAUGGCGAAUGGGACCCA | 0.426 |
| UGCCGGCUUGGUCCCAGCCUCCUCGCUGGCGCCGGCUGGGCAACAUUCCGAGGGGACCGUCCCCUCGGUAAUGGCGAAUGGGACCCA | 0.388 |
| CGCCGGCAUGGUCCCAGCCUCCUCGCUGGCGCCGGCUGGGCAACAUUCCGAGGGCACCGUCCCCUCGGUAAUGGCGAAUGGGACCCA | 0.214 |
| CGCCGGCAUGGUCCCAGCCUCCUCGCUGGCGCCGGCUGGGCAACAUUCCGAGGGUACCGUCCCCUCGGUAAUGGCGAAUGGGACCCA | 0.203 |
| CGCCGGCAUGGUCCCAGCCUCCUCGCUGGCACCGGCUGGGCAACAUUCCGAGGGGACCGUCCCCUCGGUAAUGGCGAAUGGGACCCA | 0.0302 |
| CGCCGGCAUGGUCCCAGCCUCCUCGCUGGCGCCGGCUGGGCAACAUUCCGAGAGGACCGUCCCCUCGGUAAUGGCGAAUGGGACCCA | 0.193 |
| CGCCGGCAUGGUCCCAGCCUCCUCGCUGGCGCCGGCUGGGCAACAUUCCGAGGGGAACGUCCCCUCGGUAAUGGCGAAUGGGACCCA | 0.284 |
| UGCCGGCAUGGUCCCAGCCUCCUCGCUGGCGCCGGCUGGGCAACAUUCCGAGGGGACCGUCCCCUCGGUAAUGGCGAAUGGGUCCCA | 0.358 |

| Variant | self-cleavage |
| --- | --- |
| UGCCGGCAUGGUCCCAGCCUCCUCGCUGGCGCCGGCUGGGCAACAUUCCGAGGGGACCGUCCCCUCGGUAAUGGCGUAUGGGACCCA | 0.146 |
| CGCCGGCAUGGUCCCAGCCUCCUCGCUGGCGCCGUCUGGGCAACAUUCCGAGGGGACCGUCCCCUCGGUAAUGGCGAAUGGGACCCA | 0.155 |
| CGCCGGAAUGGUCCCAGCCUCCUCGCUGGCGCCGGCUGGGCAACAUUCCGAGGGGACCGUCCCCUCGGUAAUGGCGAAUGGGACCCA | 0.0405 |
| CGCCGGUAUGGUCCCAGCCUCCUCGCUGGCGCCGGCUGGGCAACAUUCCGAGGGGACCGUCCCCUCGGUAAUGGCGAAUGGGACCCA | 0.0475 |
| CGCCGGCAUGGUCCCAGCCUCCUCGCUGGCGCCGGGUGGGCAACAUUCCGAGGGGACCGUCCCCUCGGUAAUGGCGAAUGGGACCCA | 0.0437 |
| CGCCGGCAUGGUCCCAGCCUCCUCGCUGGCGCCGGCUGGGCAACAUUCCGAGGGGACCGUCCCCUCGUUAAUGGCGAAUGGGACCCA | 0.17 |
| CGCCGACAUGGUCCCAGCCUCCUCGCUGGCGCCGGCUGGGCAACAUUCCGAGGGGACCGUCCCCUCGGUAAUGGCGAAUGGGACCCA | 0.0554 |
| CGCCGGCAUGGUGCCAGCCUCCUCGCUGGCGCCGGCUGGGCAACAUUCCGAGGGGACCGUCCCCUCGGUAAUGGCGAAUGGGACCCA | 0.0791 |
| CGCCGGCAUGGUCCCAGCCUCCUCGCUGGCGCCGGCUGGGCAACAUUCCGAGGGGACCGGCCCCUCGGUAAUGGCGAAUGGGACCCA | 0.0594 |
| CGCCGGCAUGGUCCCAGCCUCCUCGCUUGCGCCGGCUGGGCAACAUUCCGAGGGGACCGUCCCCUCGGUAAUGGCGAAUGGGACCCA | 0.107 |
| UGCCGGCAUGGUCCCAGCCUCCUCGCUGGCGCCGGCUGGGCAACAUUCCGAGGGGACCGUCCCCUCGGUACUGGCGAAUGGGACCCA | 0.297 |
| CGCCGGCAUGGUCCCAGCCUCCUCGCUGGCGCCGGCUGGGCAACAUUCCGAGGGGACCGUCCCCUCGGUAAUGGCGAUUGGGACCCA | 0.0755 |
| UGCCGGCAUGGUCCCAGCCUCCUCGCUGGCGCCGGCUGGGCAACAUUCCGAGGGGACCGUCCCCUCGGUAAUGGCGAUUGGGACCCA | 0.415 |
| UGCCGGCAUGGUCCCAGCCUCCUCGCUGGCGCCGGCUGGGCAACAUUCCGAGGGGACCGUCCCCUCGGUAAUGGCGACUGGGACCCA | 0.293 |
| CGCCGGCAUGGUCCCAGCCUCCUCGCUGGCGCCGGCUGGGCAACAUUCCGAGGGGACCGUCCCCUCGGUAAUGGCCAAUGGGACCCA | 0.237 |
| CGCCGGCAUGGUCCCAGCCUCCUCGUUGGCGCCGGCUGGGCAACAUUCCGAGGGGACCGUCCCCUCGGUAAUGGCGAAUGGGACCCA | 0.0898 |
